According to article PMC12337344:
Blank lines part the entries; values can stand above or below the substance they belong to.

Key:
[1] = molecular target: MBP-tagged wild-type G2L4 RT (Pseudomonas aeruginosa); assay: SEC; gel filtration profiles of MBP-tagged WT and RT3a mutant G2L4 RTs (SI Appendix, Fig. S4 A and B)
[2] = molecular target: MBP-tagged wild-type G2L4 RT (Pseudomonas aeruginosa); assay: native gel or EMSA; nondenaturing gel of WT and mutant G2L4 RT proteins; proportions running as monomer or dimer (SI Appendix, Fig. S10C)
[3] = molecular target: G2L4 RT without the N-terminal MBP tag (Pseudomonas aeruginosa); assay: not stated; dimer state of G2L4 RT after removal of the MBP tag and after deletion of residues 401 to 411 (SI Appendix, Fig. S10 A and B)
[4] = molecular target: MBP-tagged G2L4 RT R190E/I202E (Pseudomonas aeruginosa); assay: SEC; gel filtration profiles of MBP-tagged WT and RT3a mutant G2L4 RTs (SI Appendix, Fig. S4 A and B)
[5] = molecular target: G2L4 RT NTE mutant (R12A, Y15A, R19A) (Pseudomonas aeruginosa); assay: native gel or EMSA; nondenaturing gel of WT and mutant G2L4 RT proteins; proportions running as monomer or dimer (SI Appendix, Fig. S10C)
[6] = molecular target: G2L4 RT with an A instead of an I at the active site (Pseudomonas aeruginosa); assay: as above
[7] = molecular target: G2L4 RT NTE + Thumb mutant (R12A, Y15A, R398A) (Pseudomonas aeruginosa); assay: as above
[8] = molecular target: MBP-tagged G2L4 RT R191E/I202E (Pseudomonas aeruginosa); assay: SEC; gel filtration profiles of MBP-tagged WT and RT3a mutant G2L4 RTs (SI Appendix, Fig. S4 A and B)
[9] = molecular target: MBP-tagged G2L4 RT R190E/R191E (Pseudomonas aeruginosa); assay: as above
[10] = molecular target: G2L4 RT (Pseudomonas aeruginosa group II intron-like reverse transcriptase), full-length, as crystallised (Pseudomonas aeruginosa); assay: SEC; size-exclusion chromatography comparing G2L4 RT to GII RT (SI Appendix, Fig. S1A)
[11] = molecular target: G2L4 RT with deletion of C-terminal residues 401 to 411 (Pseudomonas aeruginosa); assay: not stated; dimer state of G2L4 RT after removal of the MBP tag and after deletion of residues 401 to 411 (SI Appendix, Fig. S10 A and B)
[12] = molecular target: G2L4 RT Thumb mutant (R397A, R398A, R404A) (Pseudomonas aeruginosa); assay: native gel or EMSA; nondenaturing gel of WT and mutant G2L4 RT proteins; proportions running as monomer or dimer (SI Appendix, Fig. S10C)

stoichiometry N [1]: 2 | percent of the protein running as monomers [2]: < 7%
Substance: MBP-tagged wild-type G2L4 RT (enzyme)

stoichiometry N [3]: 2
Substance: G2L4 RT without the N-terminal MBP tag (enzyme)

Substance: MBP-tagged G2L4 RT R190E/I202E (enzyme)
stoichiometry N [4]: 2

Substance: G2L4 RT NTE mutant (R12A, Y15A, R19A) (enzyme)
percent of the protein running as monomers [5]: 12%

Substance: G2L4 RT with an A instead of an I at the active site (enzyme)
percent of the protein running as monomers [6]: < 7%

Substance: G2L4 RT NTE + Thumb mutant (R12A, Y15A, R398A) (enzyme)
percent of the protein running as monomers [7]: 54%

Substance: MBP-tagged G2L4 RT R191E/I202E (enzyme)
stoichiometry N [8]: 2

Substance: MBP-tagged G2L4 RT R190E/R191E (enzyme)
stoichiometry N [9]: 2

stoichiometry N [10]: 2
Substance: G2L4 RT (Pseudomonas aeruginosa group II intron-like reverse transcriptase), full-length, as crystallised (enzyme)

Substance: G2L4 RT with deletion of C-terminal residues 401 to 411 (domain or fragment)
stoichiometry N [11]: 2

Substance: G2L4 RT Thumb mutant (R397A, R398A, R404A) (enzyme)
percent of the protein running as monomers [12]: 35%
